Results reported in PMC3149649, “Evidence for a Two-Metal-Ion Mechanism in the Cytidyltransferase KdsB, an Enzyme Involved in Lipopolysaccharide Biosynthesis” (PLoS ONE, 2011).

Biological target: the molecule itself
Test: SEC; analytical gel filtration chromatography of purified AA-LCKS; conditions not given

B1: LPS-specific CMP-Kdo synthetase (KdsB) from Aquifex aeolicus (enzyme)
chain: MRRAVIIPARLGSTRLKEKPLKNLLGKPLIRWVVEGLVKTGERVILATDSERVKEVVEDLCEVFLTPSDLPSGSDRVLYVVRDLDVDLIINYQGDEPFVYEEDIKLIFRELEKGERVVTLARKDKEAYERPEDVKVVLDREGYALYFSRSPIPYFRKNDTFYPLKHVGIYGFRKETLMEFGAMPPSKLEQIEGLEQLRLLENGIKIKVLITENYYHGVDTEEDLKIVEEKLKNL
notes: CMP-Kdo synthetase KdsB (EC 2.7.7.38) of Aquifex aeolicus; the structure describes residues 2-234 (N-terminal domain 2-91 and 220-234, C-terminal domain 100-210); monomer 27 kDa by SDS-PAGE; No tag is mentioned; In the crystal the protein carries CTP and two Mg2+ ions; also called AA-LCKS; CKS
B1 was tested, and the “stoichiometry N” value was 2.
